T1: human WGEF (330-581) (human, UniProt Q8IW93 330-581)
T1 construct: Weak-similarity guanine nucleotide exchange factor (WGEF, Arhgef19, Ephexin2), human, residues 330-581; also called hWGEF; hWGEF^330-581; not shown: GST, N-terminal, cleaved
T1 sequence (looked up): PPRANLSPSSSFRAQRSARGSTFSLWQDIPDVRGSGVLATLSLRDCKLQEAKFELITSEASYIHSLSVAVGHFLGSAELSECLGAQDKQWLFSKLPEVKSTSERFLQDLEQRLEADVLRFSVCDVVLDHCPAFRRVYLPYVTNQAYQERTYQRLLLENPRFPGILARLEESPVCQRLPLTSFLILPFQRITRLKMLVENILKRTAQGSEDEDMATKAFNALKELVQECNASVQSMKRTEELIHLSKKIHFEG

B1: N3^pep (peptide)
peptide: EIVLWSDIP
notes: engineered peptide, closest homologue of WGEF^pep; structure with Dvl2^PDZ in PDB 3CC0; also called engineered internal peptide N3; source: synthetic peptide, bought: Sai Biotech
B2: WGEF^pep (internal PDZ binding motif peptide of WGEF) (peptide)
peptide: GSTFSLWQDIP
notes: also called WGEF IPM peptide; source: synthetic peptide, bought: Sai Biotech
B3: WGEF^pepQ8A (peptide)
peptide: GSTFSLWADIP
notes: WGEF (Arhgef19), human residues 349-359 with Q8A; numbers count on: the peptide (1-11); Q8 is Q356 of human WGEF (from the printed limits); source: synthetic peptide, bought: Sai Biotech
B4: WGEF^pepI10A (peptide)
peptide: GSTFSLWQDAP
notes: WGEF (Arhgef19), human residues 349-359 with I10A; numbers count on: the peptide (1-11); I10 is I358 of human WGEF (from the printed limits); also called Ile at P1 to Ala; source: synthetic peptide, bought: Sai Biotech
B5: WGEF^pepL6A (peptide)
peptide: GSTFSAWQDIP
notes: WGEF (Arhgef19), human residues 349-359 with L6A; numbers count on: the peptide (1-11); L6 is L354 of human WGEF and L407 of Xenopus WGEF (from the printed limits); source: synthetic peptide, bought: Sai Biotech
B6: Human Dishevelled2 PDZ domain (domain or fragment, UniProt O14641 261-354, looked up)
chain: MSLNIITVTLNMEKYNFLGISIVGQSNERGDGGIYIGSIMKGGAVAADGRIEPGDMLLQVNDMNFENMSNDDAVRVLRDIVHKPGPIVLTVAKC
modifications: Monolith Red-maleimide 2nd generation cysteine-reactive fluorescent label (in the MST experiments)
notes: Dishevelled2 (Dvl2), human, PDZ domain; Addgene plasmid 38876 changed by a stop codon after C354 to remove the peptide fused at the C-terminus of the PDZ; Used unlabelled in the GEF assays and labelled in MST; also called Dvl2^PDZ; hDvl2^PDZ; source: E. coli Rosetta (DE3), purified (Ni-NTA, TEV cleavage, second Ni-NTA, gel filtration); not shown: His6, N-terminal, cleaved

How the values were obtained:
[1] = target: B6; assay: MST; 50 nM fluorescently labelled Dvl2^PDZ (Red-maleimide, cysteine reactive); peptides serially diluted 1:2 16 times from about 3.4 mM, hWGEF (330-581) 138-0.0042 uM; 25 C, 30 min incubation; 10 mM Tris-HCl pH 8, 150 mM NaCl, 2 mM DTT, 5% glycerol, 0.05% Tween20; Monolith NT.115; triplicates; settings: both partners purified
human WGEF (330-581) = target: T1, human WGEF (330-581); assay: as above; settings: both partners purified
[2] = target: Xenopus laevis WGEF (330-856) (Xenopus laevis); assay: cell-based or functional assay

| Binder | Kd [1] [µM] | Kd (human WGEF (330-581)) [µM] | GEF activity of xWGEF330 (5 uM) on Mant-GDP loaded RhoA with 0, 25 and 50 uM Dvl2^PDZ; no observable change at 25 uM [2] [fold] |
| --- | --- | --- | --- |
| B1 | 54 |  |  |
| B2 | 45 |  |  |
| B3 | 8.5 |  |  |
| B4 | 56 |  |  |
| B5 | 2400 |  |  |
| B6 |  | 7.9 | 4 |
